First the molecules themselves.
B1: Full-length RGS2, fluorescently labeled with Alexa Fluor-488 (natural protein, human, UniProt P41220 1-211, looked up)
chain: MQSAMFLAVQHDCRPMDKSAGSGHKSEEKREKMKRTLLKDWKTRLSYFLQNSSTPGKPKTGKKSKQQAFIKPSPEEAQLWSEAFDELLASKYGLAAFRAFLKSEFCEENIEFWLACEDFKKTKSPQKLSSKARKIYTDFIEKEAPKEINIDFQTKTLIAQNIQEATSGCFTTAQKRVYSLMENNSYPRFLESEFYQDLCKKPQITTEPHAT
modifications: labeled with Alexa Fluor-488 carboxylic acid, 2,3,5,6-tetrafluorophenyl ester, 5-isomer
B2: RGS2 RH domain (residues 72-203), wild type (domain or fragment, human)
chain: GEFGSPSPEEAQLWSEAFDELLASKYGLAAFRAFLKSEFCEENIEFWLACEDFKKTKSPQKLSSKARKIYTDFIEKEAPKEINIDFQTKTLIAQNIQEATSGCFTTAQKRVYSLMENNSYPRFLESEFYQDLCKKPQ
B3: RGS2 RH domain (residues 72-203) K175A (domain or fragment, human)
chain: B2 chain with K109A
B4: RGS2 RH domain (residues 72-203) S179K (domain or fragment, human)
chain: B2 chain with S113K
B5: RGS2 RH domain (residues 72-203) S179D (domain or fragment, human)
chain: B2 chain with S113D
B6: RGS2 RH domain (residues 72-203) S179N (domain or fragment, human)
chain: B2 chain with S113N
B7: RGS2 RH domain (residues 72-203) N183A (domain or fragment, human)
chain: B2 chain with N117A
B8: RGS2 RH domain (residues 72-203) E182A (domain or fragment, human)
chain: B2 chain with E116A
B9: RGS2 RH domain (residues 72-203) N183K (domain or fragment, human)
chain: B2 chain with N117K
B10: RGS2 RH domain (residues 72-203) N183F (domain or fragment, human)
chain: B2 chain with N117F
B11: RGS2 RH domain (residues 72-203) S179M (domain or fragment, human)
chain: B2 chain with S113M

Where a chain is given by its changes, count along the chain named. Numbers in names are those of the source.

One may read the Kd as the constant that tells how readily two partners part at equilibrium. One may read the IC50 as the concentration that inhibits the measured activity by half. Higher therefore signals lower potency.

One assay concerns the target Gαi/q-R183C chimera (Gαq R183C with the N-terminal helix of Gαi), biotinylated (not stated | mouse). Briefly: bead-based flow cytometry binding assay. Background: In flow cytometry, cells or beads pass a laser one at a time.
In the case of B1, the Kd was found to be 22 nM.

Another assay addresses T1, Murine Gαq (amino acids 7-359), biotinylated (mouse, UniProt P21279 7-359, biotinylated with biotinamidohexanoic acid N-hydroxysuccinimide).
T1 sequence (looked up): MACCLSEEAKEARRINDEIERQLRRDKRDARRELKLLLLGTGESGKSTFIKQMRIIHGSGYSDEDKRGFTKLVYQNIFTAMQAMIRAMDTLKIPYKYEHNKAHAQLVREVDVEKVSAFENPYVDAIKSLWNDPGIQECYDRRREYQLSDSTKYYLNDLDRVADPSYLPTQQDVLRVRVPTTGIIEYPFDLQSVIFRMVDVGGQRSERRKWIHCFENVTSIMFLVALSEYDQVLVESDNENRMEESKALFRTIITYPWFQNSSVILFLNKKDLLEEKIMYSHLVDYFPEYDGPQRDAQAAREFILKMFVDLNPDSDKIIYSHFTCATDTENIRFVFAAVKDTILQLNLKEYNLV
Briefly: bead-based flow cytometry binding assay.
In turn, B1 registered a Kd of 3.3 nM.

A further assay addresses T1, Murine Gαq (amino acids 7-359), …. Briefly: bead-based flow cytometry competition assay.
As for B2, the IC50 amounted to 270 nM.

Regarding B3, the 50% inhibitory concentration (IC50) was found to be 560 nM.

In the case of B4, the IC50 turned out to be 3400 nM.

On to B5, for which the IC50 was 16000 nM.

In the case of B6, the IC50 was found to be 690 nM.

Consider B7, for which the IC50 is 1500 nM.

The molecule B8 displayed an IC50 of 300 nM.

The molecule B9 displayed a concentration for half-maximal inhibition (IC50) of 7100 nM.

B10 gave an IC50 of 170 nM.

The molecule B11 came in with a concentration for half-maximal inhibition (IC50) of 130 nM.

Source of the values: publication PMC3638996 (Structure (London, England : 1993), 2013).
